Measured values as given in patent US20220098591.

What was measured:
VEGF-A121 (Homo sapiens) = target: T1, VEGF-A121 (Homo sapiens) (UniProt P15692); conditions: all G 2'-F; A,C,U 2'-OMe; Sp3 (1,3-propanediol) joins the two parts (position 9); 5' C6NH2; 3' idT; direct TR-FRET, RT
T1 sequence: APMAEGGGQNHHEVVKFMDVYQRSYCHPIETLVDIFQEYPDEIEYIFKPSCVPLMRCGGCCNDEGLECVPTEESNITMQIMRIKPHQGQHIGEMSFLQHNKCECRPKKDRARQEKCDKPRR

VEGF-A165 (Homo sapiens) = test system: T2, VEGF-A165 (Homo sapiens); conditions: all G 2'-F; A,C,U 2'-OMe; Sp3 (1,3-propanediol) joins the two parts (position 9); 5' C6NH2; 3' idT; direct TR-FRET, RT
T2 sequence: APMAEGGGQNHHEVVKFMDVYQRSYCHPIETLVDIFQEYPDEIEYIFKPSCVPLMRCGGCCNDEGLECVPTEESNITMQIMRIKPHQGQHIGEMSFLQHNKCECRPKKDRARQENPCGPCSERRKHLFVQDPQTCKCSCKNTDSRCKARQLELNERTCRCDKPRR

**Q.** How did the Kd (VEGF-A121 (Homo sapiens)) turn out when “AGGCCGCCCCGCGCGGAGGGGUUUCAUUAUCCCGUUUGGCGGCUU [Aptamer 47]” was run?
**A.** 11 nM

**Q.** What about the Kd (VEGF-A165 (Homo sapiens)) of the same sequence?
**A.** 2.1 nM
